IC50 and fold more active than MLDG data for three molecules are collected here from patent US6818617.

Assay [1] has as its target integrin α4β1 on CHO cells transfected with human α4 (human) (UniProt P13612). In words: inhibition of cell adhesion: A2 (CHOα4+) cells to immobilized VCAM-1.
Assay [2] has the same target. The assay can be described thus: inhibition of cell adhesion: α4B2 (CHO α4+/α5-) cells to immobilized VCAM-1.
Assay [3] deals with integrin α4β1 on Jurkat cells, P13612.
For assay [4] the target is unchanged. The assay can be described thus: inhibition of cell adhesion: Jurkat cells to immobilized VCAM-1.

B1: EC-3 protein, heterodimeric disintegrin from Echis carinatus suchoreki venom (protein)
chain 1: NSVHPCCDPVKCEPREGEHCISGPCCRNCYFLRAGTVCKRAVGDDVDDYCSGITPDCPRNRYKGKED
chain 2: NSVHPCCDPVKCEPREGEHCISGPCCRNCKFLNAGTICKRAMLDGLNDYCTGISTDCPRNRYKGKED
Regarding B1, the IC50 in assay [1] and in assay [2] was 0.03 µM in each case.

In turn, CKRAMLDGLNDYC (modifications not checked) [cyclic peptide …] returned a fold more active than MLDG in assay [3] of 5 fold. Also, the IC50 in assay [4] was found to be 1000 µM.

As for ECESGPCCRNCKFLKEGTICKRARGDDMDDYCNGKTCDCPRNPHKGPAT [Echistatin], the IC50 in assay [1] and in assay [2] was over 10 µM in each case.

As a reminder, the IC50 is the concentration that gives 50% inhibition. Read a low IC50 as higher potency.
